Data published in paper PMC4717663 (Nature structural & molecular biology, 2014).
Blank lines part the entries; values can stand above or below the binder they belong to. No end group written: not given here. *: point of attachment. FITC = O=C1OC2(c3ccc(O)cc3Oc3cc(O)ccc32)c2ccc(NC(=S)*)cc21; Ahx = NCCCCCC(=O)O

B1: soluble αVβ6 headpiece (complex)
chain 1: FNLDVDSPAEYSGPEGSYFGFAVDFFVPSASSRMFLLVGAPKANTTQPGIVEGGQVLKCDWSSTRRCQPIEFDATGNRDYAKDDPLEFKSHQWFGASVRSKQDKILACAPLYHWRTEMKQEREPVGTCFLQDGTKTVEYAPCRSQDIDADGQGFCQGGFSIDFTKADRVLLGGPGSFYWQGQLISDQVAEIVSKYDPNVYSIKYNNQLATRTAQAIFDDSYLGYSVAVGDFNGDGIDDFVSGVPRAARTLGMVYIYDGKNMSSLYNFTGEQMAAYFGFSVAATDINGDDYADVFIGAPLFMDRGSDGKLQEVGQVSVSLQRASGDFQTTKLNGFEVFARFGSAIAPLGDLDQDGFNDIAIAAPYGGEDKKGIVYIFNGRSTGLNAVPSQILEGQWAARSCPPSFGYSMKGATDIDKNGYPDLIVGAFGVDRAILYRARPVITVNAGLEVYPSILNQDNKTCSLPGTALKVSCFNVRFCLKADGKGVLPRKLNFQVELLLDKLKQKGAIRRALFLYSRSPSHSKNMTISRGGLMQCEELIAYLRDESEFRDKLTPITIFMEYRLDYRTAADTTGLQPILNQFTPANISRQAHILLDTGGLEVLFQ
chain 2: HVQGGCALGGAETCEDCLLIGPQCAWCAQENFTHPSGVGERCDTPANLLAKGCQLNFIENPVSQVEILKNKPLSVGRQKNSSDIVQIAPQSLILKLRPGGAQTLQVHVRQTEDYPVDLYYLMDLSASMDDDLNTIKELGSRLSKEMSKLTSNFRLGFGSFVEKPVSPFVKTTPEEIANPCSSIPYFCLPTFGFKHILPLTNDAERFNEIVKNQKISANIDTPEGGFDAIMQAAVCKEKIGWRNDSLHLLVFVSDADSHFGMDSKLAGIVCPNDGLCHLDSKNEYSMSTVLEYPTIGQLIDKLVQNNVLLIFAVTQEQVHLYENYAKLIPGATVGLLQKDSGNILQLIISAYEELRSEVELEVLGDTEGLNLSFTAICNNGTLFQHQKKCSHMKVGDTASFSVTVNIPHCERRSRHIIIKPVGLGDALELLVSPECNCDCQKEVEVNSSKCHHGNGSFQCGVCACHPGHMGPRCESRGLQTLFQ

Tests used:
Assay in all cases: fluorescence polarisation
[1] = target: nonapeptide containing RGD from pro-TGF-β3
soluble αVβ6 headpiece = target: B1
soluble αVβ3 headpiece = soluble αVβ3 headpiece (human, UniProt P06756 31-624; P05106 27-498, M400C | Q267C)
Chain of soluble αVβ3 headpiece (P05106 27-498 Q293C, one chain of several): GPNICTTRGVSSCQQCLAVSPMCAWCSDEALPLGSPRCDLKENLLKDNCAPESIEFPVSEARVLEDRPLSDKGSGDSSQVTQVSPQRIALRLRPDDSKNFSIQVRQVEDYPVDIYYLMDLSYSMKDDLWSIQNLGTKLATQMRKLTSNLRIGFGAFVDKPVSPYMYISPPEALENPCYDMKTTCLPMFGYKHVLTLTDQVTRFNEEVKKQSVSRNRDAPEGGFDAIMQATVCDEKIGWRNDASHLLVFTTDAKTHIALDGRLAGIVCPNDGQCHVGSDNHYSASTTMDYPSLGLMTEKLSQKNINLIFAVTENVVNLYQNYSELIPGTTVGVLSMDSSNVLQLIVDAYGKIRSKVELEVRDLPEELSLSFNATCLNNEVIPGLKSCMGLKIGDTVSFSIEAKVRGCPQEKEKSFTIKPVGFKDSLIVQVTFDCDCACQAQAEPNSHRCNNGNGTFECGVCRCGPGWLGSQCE

Binder: B1
Kd [1]: 0.0085 µM

Kd (soluble αVβ6 headpiece): 8.5 µM
Binder: YTSGDQKTI [homologous peptide from pro-TGF-β2 (SGD in place of RGD)]

binding result (soluble αVβ3 headpiece): binds
Binder: {FITC-Ahx}-GRGDLGRL [FITC–pro-TGF-β3 peptide (FITC-aminohexanoic-GRGDLGRL)]
